Results from US20050064507.

Tests used:
[1] = target: T1, titin peptide PFEVVWYKDKRQLRSSKKYK (SEQ ID NO:160) (not fully specified)
T1 chain: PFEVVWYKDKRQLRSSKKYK

[2] = target: T2, beta adducin peptide PSKSPSKKKKKFRTPSFLKK (SEQ ID NO:137) (not fully specified)
T2 chain: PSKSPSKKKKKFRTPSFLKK

[3] = target: T3, GABRB2 peptide QKKSRLRRRASQLKI (SEQ ID NO:84) (not fully specified)
T3 chain: QKKSRLRRRASQLKI

[4] = target: T4, PRKCM peptide VHYTSKDTLRKRHYWR (SEQ ID NO:91) (not fully specified)
T4 chain: VHYTSKDTLRKRHYWR

[5] = target: T5, cyclophilin G peptide TEEKSKKRKKKHRKNSRKHK (SEQ ID NO:165) (not fully specified)
T5 chain: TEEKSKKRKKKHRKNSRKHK

[6] = target: T6, MARCKS peptide KKKRFSFKKSFKLSGFSFKK (SEQ ID NO:111) (not fully specified)
T6 chain: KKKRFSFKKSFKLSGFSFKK

[7] = target: T7, ARHGAP6 peptide DGQKRKKSLRKKLD (SEQ ID NO:92) (not fully specified)
T7 chain: DGQKRKKSLRKKLD

[8] = target: T8, ERN1 peptide ISDFGLAKKLAVGRHSFSRR (SEQ ID NO:145) (not fully specified)
T8 chain: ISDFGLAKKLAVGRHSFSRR

[9] = target: T9, PLD1 peptide KYKAFIRIPIPTRRHTFRRQ (SEQ ID NO:161) (not fully specified)
T9 chain: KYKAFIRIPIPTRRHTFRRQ

[10] = target: T10, GABA A receptor beta 2 peptide ERHVAQKKSRLRRRASQLKI (SEQ ID NO:142) (not fully specified)
T10 chain: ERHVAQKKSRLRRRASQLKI

[11] = target: T11, CHRM1 peptide RKIPKRPGSVHRTPSRQ (SEQ ID NO:83) (not fully specified)
T11 chain: RKIPKRPGSVHRTPSRQ

[12] = target: T12, NCF1 peptide GAPPRRSSIRNAH (SEQ ID NO:101) (not fully specified)
T12 chain: GAPPRRSSIRNAH

[13] = target: T13, MARCKS peptide KKRFSFKKSFKLSGFSFKKN (SEQ ID NO:119) (not fully specified)
T13 chain: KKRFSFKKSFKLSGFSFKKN

[14] = target: T14, PRKCA peptide RFARKGSLRQKNV (SEQ ID NO:85) (not fully specified)
T14 chain: RFARKGSLRQKNV

[15] = target: T15, splicing factor, arginine/serine-rich 4 peptide RSRSRSRSKSKDKRKSRKRS (SEQ ID NO:134) (not fully specified)
T15 chain: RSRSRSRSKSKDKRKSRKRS

[16] = target: T16, ERN1 peptide KLAVGRHSFSRRSGV (SEQ ID NO:94) (not fully specified)
T16 chain: KLAVGRHSFSRRSGV

[17] = target: T17, dag kinase zeta peptide KKKKRASFKRKSSKKG (SEQ ID NO:114) (not fully specified)
T17 chain: KKKKRASFKRKSSKKG

[18] = target: T18, p164-RhoGEF peptide PRLIRRGSKKRPAR (SEQ ID NO:124) (not fully specified)
T18 chain: PRLIRRGSKKRPAR

[19] = target: T19, HERG peptide TELEGGFSRQRKRKLSFRRR (SEQ ID NO:140) (not fully specified)
T19 chain: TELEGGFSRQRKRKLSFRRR

[20] = target: T20, PARIS1 peptide EYLERRASRRRAV (SEQ ID NO:130) (not fully specified)
T20 chain: EYLERRASRRRAV

[21] = target: T21, phospholemman peptide EEGTFRSSIRRLSTRRR (SEQ ID NO:116) (not fully specified)
T21 chain: EEGTFRSSIRRLSTRRR

[22] = target: T22, nuclear RNA export factor 3 peptide VRYTPYTISPYNRKGSFRKQ (SEQ ID NO:143) (not fully specified)
T22 chain: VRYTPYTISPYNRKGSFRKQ

[23] = target: T23, MLK3 peptide HVRRRRGTFKRSKLRARD (SEQ ID NO:76) (not fully specified)
T23 chain: HVRRRRGTFKRSKLRARD

[24] = target: T24, SPTBN4 peptide EGGDRRASGRRK (SEQ ID NO:110) (not fully specified)
T24 chain: EGGDRRASGRRK

[25] = target: T25, EBNA1BP2 peptide KRPGKKGSNKRPGKR (SEQ ID NO:112) (not fully specified)
T25 chain: KRPGKKGSNKRPGKR

[26] = target: T26, PKD1 peptide RVVQSVKHTKRKSSTVMK (SEQ ID NO:149) (not fully specified)
T26 chain: RVVQSVKHTKRKSSTVMK

[27] = target: T27, MCM2 peptide VQRHRSMRKTFARYLSFRRD (SEQ ID NO:129) (not fully specified)
T27 chain: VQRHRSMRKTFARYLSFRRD

[28] = target: T28, LIMK-2 peptide LRRRSLRRSNSISKSPGP (SEQ ID NO:121) (not fully specified)
T28 chain: LRRRSLRRSNSISKSPGP

[29] = target: T29, dag kinase iota peptide PQNSLKASNRKKKRTSFKRK (SEQ ID NO:151) (not fully specified)
T29 chain: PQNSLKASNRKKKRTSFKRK

B1: PKC-epsilon (protein)
chain: MVVFNGLLKIKICEAVSLKPTAWSLRHAVGPRPQTFLLDPYIALNVDDSRIGQTATKQKTNSPAWHDEFVTDVCNGRKIELAVFHDAPIGYDDFVANCTIQFEELLQNGSRHFEDWIDLEPEGRVYVIIDLSGSSGEAPKDNEERVFRERMRPRKRQGAVRRRVHQVNGHKFMATYLRQPTYCSHCRDFIWGVIGKQGYQCQVCTCVVHKRCHELIITKCAGLKKQETPDQVGSQRFSVNMPHKFGIHNYKVPTFCDHCGSLLWGLLRQGLQCKVCKMNVHRRCETNVAPNCGVDARGIAKVLADLGVTPDKITNSGQRRKKLIAGAESPQPASGSSPSEEDRSKSAPTSPCDQEIKELENNIRKALSFDNRGEEHRAASSPDGQLMSPGENGEVRQGQAKRLGLDEFNFIKVLGKGSFGKVMLAELKGKDEVYAVKVLKKDVILQDDDVDCTMTEKRILALARKHPYLTQLYCCFQTKDRLFFVMEYVNGGDLMFQIQRSRKFDEPRSRFYAAEVTSALMFLHQHGVIYRDLKLDNILLDAEGHCKLADFGMCKEGILNGVTTTTFCGTPDYIAPEILQELEYGPSVDWWALGVLMYEMMAGQPPFEADNEDDLFESILHDDVLYPVWLSKEAVSILKAFMTKNPHKRLGCVASQNGEDAIKQHPFFKEIDWVLLEQKKIKPPFKPRIKTKRDVNNFDQDFTREEPVLTLVDEAIVKQINQEEFKGFSYFGEDLMP
- in vitro phosphorylation, 1 uM peptide (% of best substrate) [1]: 13
- in vitro phosphorylation, 1 uM peptide (% of best substrate) [2]: 32
- in vitro phosphorylation (% of best substrate) [3]: 52
- in vitro phosphorylation (% of best substrate) [4]: 49
- in vitro phosphorylation, 1 uM peptide (% of best substrate) [5]: 12
- in vitro phosphorylation (% of best substrate) [6]: 12
- in vitro phosphorylation (% of best substrate) [7]: 51
- in vitro phosphorylation, 1 uM peptide (% of best substrate) [8]: 26
- in vitro phosphorylation, 1 uM peptide (% of best substrate) [9]: 21
- in vitro phosphorylation, 1 uM peptide (% of best substrate) [10]: 28
- in vitro phosphorylation (% of best substrate) [11]: 47
- in vitro phosphorylation (% of best substrate) [12]: 19
- in vitro phosphorylation, 1 uM peptide (% of best substrate) [13]: 81
- in vitro phosphorylation (% of best substrate) [14]: 86
- in vitro phosphorylation, 1 uM peptide (% of best substrate) [15]: 32
- in vitro phosphorylation (% of best substrate) [16]: 13
- in vitro phosphorylation, 1 uM peptide (% of best substrate) [17]: 100
- in vitro phosphorylation, 1 uM peptide (% of best substrate) [18]: 49
- in vitro phosphorylation, 1 uM peptide (% of best substrate) [19]: 27
- in vitro phosphorylation, 1 uM peptide (% of best substrate) [20]: 46
- in vitro phosphorylation, 1 uM peptide (% of best substrate) [21]: 92
- in vitro phosphorylation, 1 uM peptide (% of best substrate) [22]: 21
- in vitro phosphorylation (% of best substrate) [23]: 100
- in vitro phosphorylation (% of best substrate) [24]: 4
- in vitro phosphorylation (% of best substrate) [25]: 11
- in vitro phosphorylation, 1 uM peptide (% of best substrate) [26]: 27
- in vitro phosphorylation, 1 uM peptide (% of best substrate) [27]: 65
- in vitro phosphorylation, 1 uM peptide (% of best substrate) [28]: 49
- in vitro phosphorylation, 1 uM peptide (% of best substrate) [29]: 24
